According to patent US5098841A, “Process for the preparation of hydroxy acids” (CIBA-GEIGY Corporation, priority 1988, dated 1992):

How the values were obtained:
[1] = Specific activity of commercially available dehydrogenases based on pyruvate; type: biochemical; settings: substrate pyruvate
From the text: (§1) The continuous reaction method, especially in an enzyme membrane reactor, is preferred for both processes.
(§2) U--unit of enzyme activity (under defined reaction conditions, 1 U produces a substance conversion of 1 μmol/min)

[2] = Specific activity of commercially available dehydrogenases based on 2-keto-4-phenylbutyric acid; type: biochemical; settings: substrate 2-keto-4-phenylbutyric acid
From the text: as §1, §2

L-LDH bovine heart Fluka 61310: commercially available L-lactate dehydrogenase from bovine heart, Fluka 61310
U/mg protein based on pyruvate [1]: 300 U/mg protein | U/mg protein based on 2-keto-4-phenylbutyric acid [2]: 0.07 U/mg protein
